This note sets out measurements from patent publication US6469155 (UNIVERSITA DEGLI STUDI DI BOLOGNA, dated 2002).

First the molecules themselves.
B1: HSV-1 glycoprotein D purified from HSV-1-infected BHK cells (ligand)
chain: KYALVDASLKMADPNRFRGKDLPVLDQLTDPPGVRRVYHIQAGLPDPFQPPSLPITVYYAVLERACRSVLLNAPSEAPQIVRGASEDVRKQPYNLTIAWFRMGGNCAIPITVMEYTECSYNKSLGACPIRTQPRWNYYDSFSAVSEDNLGFLMHAPAFETAGTYLRLVKINDWTEITQFILEHRAKGSCKYALPLRIPPSACLSPQAYQQGVTVDSIGMLPRFIPENQRTVAVYSLKIAGWHGPKAPYTSTLLPPELSETPNATQPELAPEDPEDSALLEDPVGTVAPQIPPNWHIPSIQDAATPYHPPATPNNMGLIAGAVGGSLLAALVICGIVYWMRRHTQKAPKRIRLPHIREDDQPSSHQPLFY
notes: also called gD; HSV gD

For one assay, the target named is T1, BSA (UniProt P02769 25-607).
T1 construct: Unrelated control molecule
In words: ELISA on immobilized gD.

Assay [1] concerns the target B1. In words: ELISA, gD immobilized, detection with anti-human IgG-peroxidase. For orientation: An ELISA detects its analyte on a solid surface through an enzyme-linked reagent.

T1 sequence (P02769 25-607 limits assumed): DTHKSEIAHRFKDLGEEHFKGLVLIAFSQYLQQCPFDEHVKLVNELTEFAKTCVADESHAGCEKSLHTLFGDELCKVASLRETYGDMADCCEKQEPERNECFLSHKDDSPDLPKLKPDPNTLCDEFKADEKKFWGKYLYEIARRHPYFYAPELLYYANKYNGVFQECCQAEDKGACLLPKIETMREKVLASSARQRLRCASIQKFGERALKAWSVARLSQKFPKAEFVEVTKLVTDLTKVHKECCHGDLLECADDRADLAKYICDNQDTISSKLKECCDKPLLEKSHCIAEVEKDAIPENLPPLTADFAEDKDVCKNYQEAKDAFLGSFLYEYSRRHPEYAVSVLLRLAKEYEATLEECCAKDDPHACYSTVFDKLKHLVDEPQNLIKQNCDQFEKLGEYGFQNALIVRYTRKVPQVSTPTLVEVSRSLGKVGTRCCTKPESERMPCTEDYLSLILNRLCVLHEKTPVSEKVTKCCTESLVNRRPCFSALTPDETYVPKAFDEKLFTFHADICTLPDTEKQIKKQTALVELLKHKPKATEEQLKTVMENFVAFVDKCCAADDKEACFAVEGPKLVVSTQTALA

In the case of B1, in the assay with BSA, the binding result was “no binding”.

B2: sV(HIgR)-Fc (Fc fusion)
chain: QVVQVNDSMYGFIGTDVVLHCSFANPLPSVKITQVTWQKSTNGSKQNVAIYNPSMGVSVLAPYRERVEFLRPSFTDGTIRLSRLELEDEGVYICGFATFPTGNRESQLNLTVMA
notes: Made in COS1 cells and purified on protein A; also called V1-Fc; soluble V domain of HIgR/PRR1; not shown: IgG Fc (Fc portion of human IgG1) from the Cos Fc Link (CFL) vector
On to B2, for which, in assay [1], the “reduction in the level of saturable binding relative to sVCC(HIgR)-Fc” value was around 30%.
